Results taken from patent publication US20160002322A1 (INDUSTRY ACADEMIC COOPERATION FOUNDATION HALLYM UNIVERSITY, published 2016).
No end group written: not given here.

What was measured:
[1] = biological target: mouse TM4SF5 peptide (mTM4SF5) (mouse); test: SPR, Biacore T100, 25 C; biotinylated peptide captured on streptavidin-coated CM4 chip, antibody injected at 2-32 nM
Procedure: (§1) Affinity of anti-hTM4SF5 monoclonal antibody binding to human TM4SF5 peptide (hTM4SF5) and mouse TM4SF5 peptide (mTM4SF5) was measured using Biacore T100 (Biacore) at 25° C. Biotinylated peptides were captured on individual flow cell surface of a CM4 sensor chip coated with streptoavidin. Biotin served as a negative control. Anti-TM4SF5 monoclonal antibody at concentrations ranging from 2 to 32 nM was injected at a flow rate of […]. Data were evaluated using Biacore Bia evaluation software (version 3.0).

[2] = biological target: mouse TM4SF5 peptide (mTM4SF5) (mouse); test: SPR (Biacore T100, 25 C), biotinylated mTM4SF5 peptide captured on a streptavidin-coated CM4 chip, antibody injected at 2 to 32 nM
Procedure: as §1

[3] = biological target: T1, hTM4SF5 peptide (138-NRTLWDRCEAPPRV-151) (human, also: biotinylated for SPR capture (position not given here)); test: SPR (Biacore T100, 25 C), biotinylated hTM4SF5 peptide captured on a streptavidin-coated CM4 chip, antibody injected at 2 to 32 nM
T1 construct: also called human TM4SF5 peptide
T1 peptide: NRTLWDRCEAPPRV
Procedure: as §1

[4] = biological target: T1, hTM4SF5 peptide (138-NRTLWDRCEAPPRV-151); test: SPR, Biacore T100, 25 C; biotinylated peptide captured on streptavidin-coated CM4 chip, antibody injected at 2-32 nM; human TM4SF5 (not mouse); peptide on the chip per methods
Procedure: as §1

Kd [1]: ~2 nM
Kd [2]: 1.87 nM
Kd [3]: 2.74 nM
Kd [4]: ~2 nM
B1: anti-TM4SF5 monoclonal antibody 2D4-18 (antibody, V domains shown)
VH: GDLVKPGGSLKLSCAASGFTFSSYGMSWVRQTPDKRLEWVATISSGGGYTYYPDSVKGRFTISRDNAKNTLYLQMRSLKSEDTAMYYCARHEGFTTYYFDYWGQGTTLTVSS
VL: LSLPVSLGDQASISCRSSQSILHSSGNTYLEWYLQKPGQSPKLLIYKVSNRFSGVPDRFSGSGSGTDFTLKISRVEAEDLGVYYCFQGSHVPFTFGSGTKLEIKR
notes: DyLight 750-labelled in the biodistribution experiment; also called TM4SF5-targeted mAb (2D4-18); anti-hTM4SF5 monoclonal antibody
